Test [1] addresses T1, Wild-type ubiquitin (UniProt P0CG48 1-76). Put plainly: NMR titration.
Test [2] addresses T1, Wild-type ubiquitin. Put plainly: NMR titration. The source holds these as a separate data set.

Like-named read-outs stand apart in the source and are kept apart here.

B1: E2-25K UBA domain (residues G154-N200) (domain or fragment, UniProt P61086 154-200, looked up)
chain: GAPVSSPEYTKKIENLCAMGFDRNAVIVALSSKSWDVETATELLLSN
Broadly, the Kd is the constant that tells how readily two partners part at equilibrium. Read a high Kd as weaker binding. Molecule B1 showed a Kd with Wild-type ubiquitin [1] of roughly 1200 µM.

B2: Full-length E2-25K (enzyme, UniProt P61086 1-200, looked up)
chain: MANIAVQRIKREFKEVLKSEETSKNQIKVDLVDENFTELRGEIAGPPDTPYEGGRYQLEIKIPETYPFNPPKVRFITKIWHPNISSVTGAICLDILKDQWAAAMTLRTVLLSLQALLAAAEPDDPQDAVVANQYKQNPEMFKQTARLWAHVYAGAPVSSPEYTKKIENLCAMGFDRNAVIVALSSKSWDVETATELLLSN
On to B2, for which the Kd with Wild-type ubiquitin [2] was roughly 1000 µM.

For the origin of these results see publication PMC3086721 (Biochemical and biophysical research communications, 2011).
